# Measured values: article PMC4941815 (Molecular cell, 2016)
# Like-named read-outs stand apart in the source and are kept apart here.
# B1: GST-tagged form of the CLK1 N-terminus (domain or fragment, UniProt P49759 1-160, looked up)
# chain: MRHSKRTYCPDWDDKDWDYGKWRSSSSHKRRKRSHSSAQENKRCKYNHSKMCDSHYLESRSINEKDYHSRRYIDEYRNDYTQGCEPGHRQRDHESRYQNHSSKSSGRSGRSSYKSKHRIHHSTSHRRSHGKSHRRKRTRSVEDDEEGHLICQSGDVLSAR
# B2: full-length His-tagged CLK1 (enzyme)
# chain: not shown
# B3: kdSRPK1, kinase inactive SRPK1 containing K109M (enzyme, UniProt Q96SB4 1-655, looked up)
# chain: MERKVLALQARKKRTKAKKDKAQRKSETQHRGSAPHSESDLPEQEEEILGSDDDEQEDPNDYCKGGYHLVKIGDLFNGRYHVIRKLGWGHFSTVWLSWDIQGKKFVAMMVVKSAEHYTETALDEIRLLKSVRNSDPNDPNREMVVQLLDDFKISGVNGTHICMVFEVLGHHLLKWIIKSNYQGLPLPCVKKIIQQVLQGLDYLHTKCRIIHTDIKPENILLSVNEQYIRRLAAEATEWQRSGAPPPSGSAVSTAPQPKPADKMSKNKKKKLKKKQKRQAELLEKRMQEIEEMEKESGPGQKRPNKQEESESPVERPLKENPPNKMTQEKLEESSTIGQDQTLMERDTEGGAAEINCNGVIEVINYTQNSNNETLRHKEDLHNANDCDVQNLNQESSFLSSQNGDSSTSQETDSCTPITSEVSDTMVCQSSSTVGQSFSEQHISQLQESIRAEIPCEDEQEQEHNGPLDNKGKSTAGNFLVNPLEPKNAEKLKVKIADLGNACWVHKHFTEDIQTRQYRSLEVLIGSGYNTPADIWSTACMAFELATGDYLFEPHSGEEYTRDEDHIALIIELLGKVPRKLIVAGKYSKEFFTKKGDLKHITKLKPWGLFEVLVEKYEWSQEEAAGFTDFLLPMLELIPEKRATAAECLRHPWLNS
# Key:
# His-tagged SRPK1 [1] = target: T1, His-tagged SRPK1 (UniProt Q96SB4 1-655); test: pull-down
# His-tagged SRPK1 [2] = target: T1, His-tagged SRPK1; test: pull-down; remark: listed apart in the source
# [3] = target: B3; test: displacement of 32P-phospho-GST-SRSF1 from His-CLK1 on Ni-resin
# [4] = target: B2; test: as above
binder,measurement,setting,value
B1,binding result,His-tagged SRPK1 [1],binds
B2,binding result,His-tagged SRPK1 [2],binds
same,Kd,[3],16 ± 6 nM
B3,stoichiometry N,[4],1
